The target of test [1] is yeast COMPASS catalytic module (Set1-Swd1-Swd3-Bre2-Sdc1) (Kluyveromyces lactis, UniProt Q6CIT4). As to the kind of experiment: H3K4 methylation of nucleosomes, western blot. The format is biochemical. The settings on record: 0.2 mM SAM, 1 uM enzyme, 0.5 uM nucleosomes, pH 7.5, 30 C, 30 min. (In general: A western blot detects proteins with antibodies after separation by electrophoresis.)

Test [2] addresses K. lactis Sdc1 (crystallised construct) (K. lactis). Briefly: crystal structure.
The target in test [3] is K. lactis Bre2 (crystallised construct) (K. lactis). Briefly: crystal structure.

Regarding `C[S+](CC[C@H](N)C(=O)O)C[C@H]1O[C@@H](n2cnc3c(N)ncnc32)[C@H](O)[C@@H]1O` (stereo partly drawn) [SAM], the “H3K4 methylation of nucleosomes, western blot” value in test [1] was “alanine mutation of Trp197 drastically compromised the catalytic activity of Set1”. With “K. lactis Sdc1 (crystallised construct) (natural protein)”, the stoichiometry N in test [2] and in test [3] was 2 each time.

As a reminder, the stoichiometry N is the number of molecules, sites or subunits per partner or assembly.
